Measurements as given in PMC11246429 (2024).

Tests used:
[1] = target: AP180 segment 471–700 (rat); experiment: NMR titration; unlabeled AP2α titrated into 15N labeled AP180 (50 μM AP180 471–700, 90 μM AP180IDR); 1H-15N HSQC and 15N R1ρ; residue-wise KD from R1ρ against AP2α concentration; NMR buffer 50 mM Na-phosphate pH 6, 150 mM NaCl, 2 mM DTT, 25 °C
[2] = target: AP180 399-598 (rat); experiment: ITC; AP2β2 mutants titrated into 0.04 mM AP180 399-598 in the cell; 25 °C; 150 mM NaCl, 50 mM Na-phosphate, 0.2 mM TCEP, pH 7.5; 1:1 binding model
[3] = target: AP180 IDR (residues 281–898 of AP180) (rat); experiment: NMR titration; unlabeled CHCTD (in 50 mM Na-phosphate pH 7.5, 150 mM NaCl, 2 mM DTT) titrated into 15N labeled AP180 in NMR buffer (pH 6); 1H-15N HSQC and 15N R1ρ; residue-wise KD from a linear fit of R1ρ against CHCTD concentration under the assumption of weak binding; 25 °C
[4] = target: AP180 430–500 (extended interaction motif, EIM) (rat); experiment: ITC; 0.03 mM AP180 construct in the cell (0.04 mM AP180 399–598 for the AP2β2 mutants), 2 μl steps of 0.3 mM AP2β2; 25 °C; 150 mM NaCl, 50 mM Na-phosphate, 0.2 mM TCEP, pH 7.5; 1:1 binding model
[5] = target: AP180 IDR (residues 281–898 of AP180) (rat); experiment: as above
[6] = target: AP180 segment 399–598 (rat); experiment: as above
[7] = target: AP180 segment 399–598 (rat); experiment: NMR CPMG relaxation dispersion; 100 μM 15N AP180 399–598 with 10 μM unlabeled AP2β2; 600 and 850 MHz; 22 residues fitted together with a two-state exchange model (ChemEx); KD calculated from pB under the assumption of 1:1 stoichiometry
[8] = target: T1, AP2 β2-appendage domain with linker (residues 617–951) (bovine, UniProt Q08DS7 617-951); experiment: ITC
T1 chain: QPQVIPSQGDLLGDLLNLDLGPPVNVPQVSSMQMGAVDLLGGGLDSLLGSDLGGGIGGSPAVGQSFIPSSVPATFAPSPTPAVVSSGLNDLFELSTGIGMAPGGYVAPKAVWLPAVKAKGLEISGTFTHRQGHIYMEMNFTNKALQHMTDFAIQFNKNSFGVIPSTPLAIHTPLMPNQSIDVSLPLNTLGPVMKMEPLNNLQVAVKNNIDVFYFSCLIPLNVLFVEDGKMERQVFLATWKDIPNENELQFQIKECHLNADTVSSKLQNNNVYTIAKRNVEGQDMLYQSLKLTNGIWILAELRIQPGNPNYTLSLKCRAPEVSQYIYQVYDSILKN

AP180 segment 471–700 (rat), sequence (Q05140 whole entry): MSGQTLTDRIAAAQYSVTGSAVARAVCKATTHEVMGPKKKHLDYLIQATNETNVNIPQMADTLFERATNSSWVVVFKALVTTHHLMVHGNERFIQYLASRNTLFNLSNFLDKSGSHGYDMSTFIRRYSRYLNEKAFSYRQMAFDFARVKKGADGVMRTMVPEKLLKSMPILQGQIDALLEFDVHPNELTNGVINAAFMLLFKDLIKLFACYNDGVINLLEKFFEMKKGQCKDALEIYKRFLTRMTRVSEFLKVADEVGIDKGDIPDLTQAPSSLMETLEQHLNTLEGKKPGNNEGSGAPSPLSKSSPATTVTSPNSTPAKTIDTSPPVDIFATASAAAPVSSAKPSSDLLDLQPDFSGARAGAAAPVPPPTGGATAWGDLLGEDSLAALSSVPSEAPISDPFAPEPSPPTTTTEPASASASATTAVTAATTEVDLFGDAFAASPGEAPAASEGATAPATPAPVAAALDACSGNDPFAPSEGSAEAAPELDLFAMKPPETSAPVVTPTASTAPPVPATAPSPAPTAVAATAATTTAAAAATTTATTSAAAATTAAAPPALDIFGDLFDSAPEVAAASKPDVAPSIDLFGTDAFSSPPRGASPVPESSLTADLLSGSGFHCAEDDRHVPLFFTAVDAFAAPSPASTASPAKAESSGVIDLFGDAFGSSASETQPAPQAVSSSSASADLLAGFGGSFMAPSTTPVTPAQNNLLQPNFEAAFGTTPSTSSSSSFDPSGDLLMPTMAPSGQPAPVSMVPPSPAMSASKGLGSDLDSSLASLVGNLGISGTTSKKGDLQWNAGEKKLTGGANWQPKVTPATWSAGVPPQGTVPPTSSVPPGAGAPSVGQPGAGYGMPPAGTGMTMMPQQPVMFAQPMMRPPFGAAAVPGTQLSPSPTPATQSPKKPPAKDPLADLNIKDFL

AP2 α-appendage domain (residues 701–938) (from UniProt P17427 701-938) (domain or fragment)
residue-wise KD (first residue of Fig. 3D) [1]: 144 µM
residue-wise KD (second residue of Fig. 3D) [1]: 380 µM
residue-wise KD (third residue of Fig. 3D) [1]: 414 µM

AP2β2 K842E (domain or fragment)
Kd [2]: 7.8 µM

AP2β2 Y815A (domain or fragment)
Kd [2]: 4.9 µM

AP2β2 Y888A (domain or fragment)
Kd [2]: 7.3 µM

clathrin heavy chain terminal domain (residues 1–363) (from UniProt P49951 1-363) (domain or fragment)
residue-wise KD (first residue of Fig. 2E) [3]: 177 µM
residue-wise KD (fourth residue of Fig. 2E) [3]: 700 µM
residue-wise KD (second residue of Fig. 2E) [3]: 294 µM
residue-wise KD (third residue of Fig. 2E) [3]: 549 µM

B1: AP2 β2-appendage domain with linker (residues 617–951) (domain or fragment)
chain: QPQVIPSQGDLLGDLLNLDLGPPVNVPQVSSMQMGAVDLLGGGLDSLLGSDLGGGIGGSPAVGQSFIPSSVPATFAPSPTPAVVSSGLNDLFELSTGIGMAPGGYVAPKAVWLPAVKAKGLEISGTFTHRQGHIYMEMNFTNKALQHMTDFAIQFNKNSFGVIPSTPLAIHTPLMPNQSIDVSLPLNTLGPVMKMEPLNNLQVAVKNNIDVFYFSCLIPLNVLFVEDGKMERQVFLATWKDIPNENELQFQIKECHLNADTVSSKLQNNNVYTIAKRNVEGQDMLYQSLKLTNGIWILAELRIQPGNPNYTLSLKCRAPEVSQYIYQVYDSILKN
Kd [4]: 2.5 µM
Kd [5]: 6.97 µM
Kd [6]: 5.1 µM
Kd [7]: 10 µM
exchange rate kex (kon [AP2β2] + koff) [7]: 662 s⁻¹
percentage of bound population of AP180 (10% AP2β2) [7]: 8.9%

B2: AP180 IDR (residues 281–898 of AP180) (domain or fragment)
chain: GHMHLNTLEGKKPGNNEGSGAPSPLSKSSPATTVTSPNSTPAKTIDTSPPVDIFATASAAAPVSSAKPSSDLLDLQPDFSGAAAGAAAPVPPPTGGATAWGDLLGEDSLAALSSVPSEAPISDPFAPEPSPPTTTTEPASASASATTAVTAATTEVDLFGDAFAASPGEAPAASEGATAPATPAPVAAALDACSGNDPFAPSEGSAEAAPELDLFAMKPPETSAPVVTPTASTAPPVPATAPSPAPTAVAATAAATTTTTAAAATTTATTSAAAAATAAAPPALDIFGDLFDSAPEVAAASKPDVAPSIDLFGTDAFSSPPRGASPVPESSLTADLLSVDAFAAPSPASTASPAKAESSGVIDLFGDAFGSSASETQPAPQAVSSSSASADLLAGFGGSFMAPSTTPVTPAQNNLLQPNFEAAFGTTPSTSSSSSFDPSGDLLMPTMAPSGQPAPVSMVPPSPAMSASKGLGSDLDSSLASLVGNLGISGTTSKKGDLQWNAGEKKLTGGANWQPKVTPATWSAGVPPQGTVPPTSSVPPGAGAPSVGQPGAGYGMPPAGTGMTMMPQQPVMFAQPMMRPPFGAAAVPGTQLSPSPTPATQSPKKPPAKDPLADLNIKDFLLEHHHHHH
Kd [8]: 4.2 µM
